Assay results: US20110263454A1, “Methods of Identifying Functional Characteristics of Promoters, Transcription Modifying Proteins and Transcription Modulating Agents” (Salk Institute for Biological Studies, priority 2008, published 2011)

B1: GCNF: Germ Cell Nuclear Factor (NR6A1, GCNF1), cDNA driver (protein, UniProt Q15406 1-480, looked up)
Nuclear receptor subfamily 6 …: MERDEPPPSGGGGGGGSAGFLEPPAALPPPPRNGFCQDELAELDPGTISVSDDRAEQRTCLICGDRATGLHYGIISCEGCKGFFKRSICNKRVYRCSRDKNCVMSRKQRNRCQYCRLLKCLQMGMNRKAIREDGMPGGRNKSIGPVQISEEEIERIMSGQEFEEEANHWSNHGDSDHSSPGNRASESNQPSPGSTLSSSRSVELNGFMAFREQYMGMSVPPHYQYIPHLFSYSGHSPLLPQQARSLDPQSYSLIHQLLSAEDLEPLGTPMLIEDGYAVTQAELFALLCRLADELLFRQIAWIKKLPFFCELSIKDYTCLLSSTWQELILLSSLTVYSKQIFGELADVTAKYSPSDEELHRFSDEGMEVIERLIYLYHKFHQLKVSNEEYACMKAINFLNQDIRGLTSASQLEQLNKRYWYICQDFTEYKYTHQPNRFPDLMMCLPEIRYIAGKMVNVPLEQLPLLFKVVLHSCKTSVGKE
B2: NR4a3: NR4a3 (NR4A3; NOR1), nuclear hormone receptor cDNA driver (protein, UniProt Q92570 1-626, looked up)
Nuclear receptor subfamily 4 …: MPCVQAQYSPSPPGSSYAAQTYSSEYTTEIMNPDYTKLTMDLGSTEITATATTSLPSISTFVEGYSSNYELKPSCVYQMQRPLIKVEEGRAPSYHHHHHHHHHHHHHHQQQHQQPSIPPASSPEDEVLPSTSMYFKQSPPSTPTTPAFPPQAGALWDEALPSAPGCIAPGPLLDPPMKAVPTVAGARFPLFHFKPSPPHPPAPSPAGGHHLGYDPTAAAALSLPLGAAAAAGSQAAALESHPYGLPLAKRAAPLAFPPLGLTPSPTASSLLGESPSLPSPPSRSSSSGEGTCAVCGDNAACQHYGVRTCEGCKGFFKRTVQKNAKYVCLANKNCPVDKRRRNRCQYCRFQKCLSVGMVKEVVRTDSLKGRRGRLPSKPKSPLQQEPSQPSPPSPPICMMNALVRALTDSTPRDLDYSRYCPTDQAAAGTDAEHVQQFYNLLTASIDVSRSWAEKIPGFTDLPKEDQTLLIESAFLELFVLRLSIRSNTAEDKFVFCNGLVLHRLQCLRGFGEWLDSIKDFSLNLQSLNLDIQALACLSALSMITERHGLKEPKRVEELCNKITSSLKDHQSKGQALEPTESKVLGALVELRKICTLGLQRIFYLKLEDLVSPPSIIDKLFLDTLPF
B3: NR4a2: NR4a2 (NR4A2; NURR1), nuclear hormone receptor cDNA driver (protein, UniProt P43354 1-598, looked up)
Nuclear receptor subfamily 4 …: MPCVQAQYGSSPQGASPASQSYSYHSSGEYSSDFLTPEFVKFSMDLTNTEITATTSLPSFSTFMDNYSTGYDVKPPCLYQMPLSGQQSSIKVEDIQMHNYQQHSHLPPQSEEMMPHSGSVYYKPSSPPTPTTPGFQVQHSPMWDDPGSLHNFHQNYVATTHMIEQRKTPVSRLSLFSFKQSPPGTPVSSCQMRFDGPLHVPMNPEPAGSHHVVDGQTFAVPNPIRKPASMGFPGLQIGHASQLLDTQVPSPPSRGSPSNEGLCAVCGDNAACQHYGVRTCEGCKGFFKRTVQKNAKYVCLANKNCPVDKRRRNRCQYCRFQKCLAVGMVKEVVRTDSLKGRRGRLPSKPKSPQEPSPPSPPVSLISALVRAHVDSNPAMTSLDYSRFQANPDYQMSGDDTQHIQQFYDLLTGSMEIIRGWAEKIPGFADLPKADQDLLFESAFLELFVLRLAYRSNPVEGKLIFCNGVVLHRLQCVRGFGEWIDSIVEFSSNLQNMNIDISAFSCIAALAMVTERHGLKEPKRVEELQNKIVNCLKDHVTFNNGGLNRPNYLSKLLGKLPELRTLCTQGLQRIFYLKLEDLVPPPAIIDKLFLDTLPF
B4: DAX-1: DAX1 (NR0B1), cDNA driver (protein, UniProt P51843 1-470, looked up)
Nuclear receptor subfamily 0 …: MAGENHQWQGSILYNMLMSAKQTRAAPEAPETRLVDQCWGCSCGDEPGVGREGLLGGRNVALLYRCCFCGKDHPRQGSILYSMLTSAKQTYAAPKAPEATLGPCWGCSCGSDPGVGRAGLPGGRPVALLYRCCFCGEDHPRQGSILYSLLTSSKQTHVAPAAPEARPGGAWWDRSYFAQRPGGKEALPGGRATALLYRCCFCGEDHPQQGSTLYCVPTSTNQAQAAPEERPRAPWWDTSSGALRPVALKSPQVVCEAASAGLLKTLRFVKYLPCFQVLPLDQQLVLVRNCWASLLMLELAQDRLQFETVEVSEPSMLQKILTTRRRETGGNEPLPVPTLQHHLAPPAEARKVPSASQVQAIKCFLSKCWSLNISTKEYAYLKGTVLFNPDVPGLQCVKYIQGLQWGTQQILSEHTRMTHQGPHDRFIELNSTLFLLRFINANVIAELFFRPIIGTVSMDDMMLEMLCTKI
B5: PR: Progesterone Receptor (NR3C3), cDNA driver (protein, UniProt P06401 1-933, looked up)
Progesterone receptor: MTELKAKGPRAPHVAGGPPSPEVGSPLLCRPAAGPFPGSQTSDTLPEVSAIPISLDGLLFPRPCQGQDPSDEKTQDQQSLSDVEGAYSRAEATRGAGGSSSSPPEKDSGLLDSVLDTLLAPSGPGQSQPSPPACEVTSSWCLFGPELPEDPPAAPATQRVLSPLMSRSGCKVGDSSGTAAAHKVLPRGLSPARQLLLPASESPHWSGAPVKPSPQAAAVEVEEEDGSESEESAGPLLKGKPRALGGAAAGGGAAAVPPGAAAGGVALVPKEDSRFSAPRVALVEQDAPMAPGRSPLATTVMDFIHVPILPLNHALLAARTRQLLEDESYDGGAGAASAFAPPRSSPCASSTPVAVGDFPDCAYPPDAEPKDDAYPLYSDFQPPALKIKEEEEGAEASARSPRSYLVAGANPAAFPDFPLGPPPPLPPRATPSRPGEAAVTAAPASASVSSASSSGSTLECILYKAEGAPPQQGPFAPPPCKAPGASGCLLPRDGLPSTSASAAAAGAAPALYPALGLNGLPQLGYQAAVLKEGLPQVYPPYLNYLRPDSEASQSPQYSFESLPQKICLICGDEASGCHYGVLTCGSCKVFFKRAMEGQHNYLCAGRNDCIVDKIRRKNCPACRLRKCCQAGMVLGGRKFKKFNKVRVVRALDAVALPQPVGVPNESQALSQRFTFSPGQDIQLIPPLINLLMSIEPDVIYAGHDNTKPDTSSSLLTSLNQLGERQLLSVVKWSKSLPGFRNLHIDDQITLIQYSWMSLMVFGLGWRSYKHVSGQMLYFAPDLILNEQRMKESSFYSLCLTMWQIPQEFVKLQVSQEEFLCMKVLLLLNTIPLEGLRSQTQFEEMRSSYIRELIKAIGLRQKGVVSSSQRFYQLTKLLDNLHDLVKQLHLYCLNTFIQSRALSVEFPEMMSEVIAAQLPKILAGMVKPLLFHKK
B6: SHP: Small Heterodimer Partner (NR0B2), cDNA driver (protein, UniProt Q15466 1-257, looked up)
Nuclear receptor subfamily 0 …: MSTSQPGACPCQGAASRPAILYALLSSSLKAVPRPRSRCLCRQHRPVQLCAPHRTCREALDVLAKTVAFLRNLPSFWQLPPQDQRRLLQGCWGPLFLLGLAQDAVTFEVAEAPVPSILKKILLEEPSSSGGSGQLPDRPQPSLAAVQWLQCCLESFWSLELSPKEYACLKGTILFNPDVPGLQAASHIGHLQQEAHWVLCEVLEPWCPAAQGRLTRVLLTASTLKSIPTSLLGDLFFRPIIGDVDIAGLLGDMLLLR

What was measured:
mUCP2 promoter = experiment: NHR-promoter luciferase screen, mUCP2 promoter; assay type: cell-based, mouse; details: for Luc. act., normalized to lacZ / Normalized Luc. act., normalized to control: mUCP2 promoter reporter, co-transfected HR, with or without its ligand; for Normalized Luc. act., normalized to control: relative to control; for luciferase activity normalized to lacZ activity and to a control, mUCP2: mUCP2 promoter-luciferase, CV-1 cells, NHR +/- ligand, control = 1.00
How it was run: (§1)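 CV-1 cells were co-transfected with 50 ng NHR (homodimer or NHR/RXR heterodimer), 100 ng promoter-luciferase construct and 50 ng LacZ. Luciferase was normalized to LacZ and to a no-NHR/no-ligand control.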

mAgrp promoter = experiment: NHR-promoter luciferase screen, mAgrp promoter; assay type: cell-based, mouse; details: for Results of assays of transcription factor (+/- ligand) with mAgrp: Table 6d, luciferase activity relative to control (control = 1.00); for Luc. act., normalized to lacZ / Normalized Luc. act., normalized to control: mAgrp promoter, HR component with or without ligand; for Normalized Luc. act., normalized to control: relative to control
How it was run: as §1

hIFNg promoter = experiment: NHR-promoter luciferase screen, hIFNg promoter; assay type: cell-based, human; details: for Luc. act., normalized to lacZ / Normalized Luc. act., normalized to control: IFNg promoter, HR component without or with ligand; for hIFNg promoter reporter activity: transcription factor +/- ligand, control = 1.00
How it was run: as §1

FGF1D promoter = experiment: FGF family promoter luciferase reporter screen by NHRs, FGF1D; assay type: cell-based, human; details: FIG. 43, in words
Excerpt: Screening for FGF regulation by NHRs. The methods described herein provide a straightforward, high throughput, sensitive and quantitative strategy to identify therapeutic agonists and antagonists that can predictably modulate FGF and FGFR expression for therapeutic benefit. Promoter constructs were designed and screened for all 22 members of the FGF-family for novel regulation by the NHRs. Of particular interest is the strong and specific transcriptional regulation of FGF1A, one of the alternative splice variants of FGF1, by PPARγ (FIG. 43). The FGF 1 gene is regulated by at least three (A, B and D) different promoters. Alternative splicing of these promoters to the three exons of the FGF1 gene results in identical but differentially expressed FGF1 polypeptides (FIG. 44). FGF1A is highly expressed in heart, kidney and adipose, FGF1B is highly expressed in brain and FGF1D is highly expressed in liver.

Row | Molecule | Luc. act., normalized to lacZ (mUCP2 promoter) | Normalized Luc. act., normalized to control (mUCP2 promoter) | luciferase activity normalized to lacZ activity and to a control, mUCP2 (mUCP2 promoter) | Results of assays of transcription factor (+/- ligand) with mAgrp (mAgrp promoter) | Luc. act., normalized to lacZ (mAgrp promoter) | Normalized Luc. act., normalized to control (mAgrp promoter) | Luc. act., normalized to lacZ (hIFNg promoter) | Normalized Luc. act., normalized to control (hIFNg promoter) | hIFNg promoter reporter activity (hIFNg promoter) | activation of FGF1D promoter, luciferase reporter assay (FGF1D promoter)
1 | LXRa: Liver X Receptor α (NR1H3), cDNA driver | 262.7 | 2.4 | 2.39 | 1.58 | 62.5 | 1.6 | 24.59 | 1.5 | 1.55 | moderate activation
2 | B1 | 139.9 | 1.3 | 1.27 | 1.42 | 56.5 | 1.4 | 18.4 | 1.2 | 1.15 | –
3 | B2 | 150.1 | 1.4 | 1.37 | 0.88 | 34.7 | 0.9 | 16.4 | 1.0 | 1.03 | –
4 | B3 | 129.8 | 1.2 | 1.18 | 0.88 | 35.1 | 0.9 | 24.3 | 1.5 | 1.53 | –
5 | B4 | 158.6 | 1.4 | 1.44 | 1.07 | 42.3 | 1.1 | 24.7 | 1.6 | 1.55 | –
6 | B5 | 178.8 | 1.6 | 1.63 | 1.13 | 44.7 | 1.1 | 22.6 | 1.4 | 1.42 | –
7 | B6 | 164.1 | 1.5 | 1.49 | 1.12 | 44.6 | 1.1 | 16.0 | 1.0 | 1.01 | –
